Broadly, the Kd is a measure of binding affinity in units of concentration.

“And” between values parts separate entries of the source, which are not always exact repeats. Equal entries are not always repeated.

We go through three molecules from paper PMC4001326, “DNA polymerase V activity is autoregulated by a novel intrinsic DNA-dependent ATPase”.

The target in data set [1] is pol V Mut E38K/ΔC17 del17-17;RecA:E38K (Escherichia coli (pol V from strain RW644)) (UniProt P0AG11+P04152+P0A7G6). Put plainly: fluorescence anisotropy. The note with it: fluorescein-dT replacing T44 (from parent S5); 20 mM Tris-HCl pH 7.5, 25 mM Na glutamate, 8 mM MgCl2, 8 mM DTT, 4% glycerol, 0.1 mM EDTA, 37 C; 50 nM labeled hairpin; 500 uM ATP or ATPgS (titrations to …).

Data set [2] deals with pol V Mut E38K/K72R K72R;RecA:E38K (Escherichia coli (pol V from strain RW644)) (UniProt P0AG11+P04152+P0A7G6). Put plainly: fluorescence anisotropy. The note with it: fluorescein-dT replacing T44 (from parent S5); 20 mM Tris-HCl pH 7.5, 25 mM Na glutamate, 8 mM MgCl2, 8 mM DTT, 4% glycerol, 0.1 mM EDTA, 37 C; 50 nM labeled hairpin; 500 uM ATP or ATPgS (titrations to …). For orientation: Fluorescence polarisation rises when a labelled molecule tumbles more slowly, as on binding a larger partner.

Data set [3] addresses T1, pol V Mut WT (UmuD'2C-RecA-ATP) (Escherichia coli (pol V from strain …, UniProt P0AG11;P04152;P0A7G6 25-139;1-422;2-353)). Put plainly: fluorescence anisotropy; ATPgS titration, saturating at about 220 uM; 20 mM Tris-HCl pH 7.5, 25 mM Na glutamate, 8 mM MgCl2, 8 mM DTT, 4% glycerol, 0.1 mM EDTA, 37 C; 50 nM labeled hairpin; 500 uM ATP or ATPgS (titrations to 750 uM). The note with it: protein: recombinant, tags: His (pol V), chain copies: 2;1;1, label: fluorescein (internal dT), 18 bp stem, 5' overhang 3 nt by name.

Data set [4] deals with T1, pol V Mut WT (UmuD'2C-RecA-ATP). Nature of the data set: fluorescence anisotropy; 500 uM ATPgS; 20 mM Tris-HCl pH 7.5, 25 mM Na glutamate, 8 mM MgCl2, 8 mM DTT, 4% glycerol, 0.1 mM EDTA, 37 C; 50 nM labeled hairpin; 500 uM ATP or ATPgS (titrations to 750 uM). The note with it: protein: recombinant, tags: His (pol V), chain copies: 2;1;1, label: fluorescein (internal dT), 18 bp stem, 5' overhang 12 nt.

In the case of “CGAAACAGGAAAGCAGTTAGCGCATTCAGCTCATACTGCTGAATGCGCTAACTGC [Fluorescein 12 nt oh HP]”, the Kd in data set [1] is 312 nM and 469 nM; in data set [2], 920 nM.

B1: Fluorescein 3 nt oh HP (structured_DNA)
DNA: AGAGCAGTTAGCGCATTCAGCTCATACTGCTGAATGCGCTAACTGC
modifications: fluorescein-dT replacing T17 (from parent S1)
For B1, in data set [3], the binding result is “binds”.

B2: Fluorescein 12 nt oh HP (structured_DNA)
DNA: CGAAACAGGAAAGCAGTTAGCGCATTCAGCTCATACTGCTGAATGCGCTAACTGC
modifications: fluorescein-dT replacing T44 (from parent S5)
For B2, in data set [4], the Kd came to 876 ± 52 nM.
